Reference: the supplement of paper PMC9233669
Variants at the floor of the assay were thinned out.

Columns and labels:
biotinyl-Val-oxazolone = assay: self-aminoacylation, catalytic enhancement (BVO) (fold over background); higher = more active; k-Seq, kA / k0A0; sequences stand for … in GGGAAUGGAUCCACAUCUACGAAUUC…UUCACUGCAGACUUGACGAAGCUG
In short: (§1)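 Mutagenized RNA pools (0.43 μM; 21-nt variable region) were treated with 2–1250 μM of each biotinyl-aminoacyl-oxazolone. Conditions were 50 μL HEPES/NaCl/KCl/MgCl2/CaCl2 buffer, 5% acetonitrile, pH 6.9–7.0, room temperature, 90 minutes. Catalytic enhancement, the median kA relative to the uncatalyzed rate, was derived from streptavidin capture, qPCR and Illumina sequencing.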

biotinyl-Trp-oxazolone = assay: self-aminoacylation, catalytic enhancement (BWO) (fold over background); higher = more active; k-Seq, kA / k0A0; sequences stand for … in GGGAAUGGAUCCACAUCUACGAAUUC…UUCACUGCAGACUUGACGAAGCUG
In short: as §1

biotinyl-Met-oxazolone = assay: self-aminoacylation, catalytic enhancement (BMO) (fold over background); higher = more active; k-Seq, kA / k0A0; sequences stand for … in GGGAAUGGAUCCACAUCUACGAAUUC…UUCACUGCAGACUUGACGAAGCUG
In short: as §1

biotinyl-Leu-oxazolone = assay: self-aminoacylation, catalytic enhancement (BLO) (fold over background); higher = more active; k-Seq, kA / k0A0; sequences stand for … in GGGAAUGGAUCCACAUCUACGAAUUC…UUCACUGCAGACUUGACGAAGCUG
In short: as §1

biotinyl-Phe-oxazolone = assay: self-aminoacylation, catalytic enhancement (BFO) (fold over background); higher = more active; k-Seq, kA / k0A0; sequences stand for … in GGGAAUGGAUCCACAUCUACGAAUUC…UUCACUGCAGACUUGACGAAGCUG
In short: as §1

biotinyl-Ile-oxazolone = assay: self-aminoacylation, catalytic enhancement (BIO) (fold over background); higher = more active; k-Seq, kA / k0A0; sequences stand for … in GGGAAUGGAUCCACAUCUACGAAUUC…UUCACUGCAGACUUGACGAAGCUG
In short: as §1

Sequence	self-aminoacylation (biotinyl-Val-oxazolone)	self-aminoacylation (biotinyl-Trp-oxazolone)	self-aminoacylation (biotinyl-Met-oxazolone)	self-aminoacylation (biotinyl-Leu-oxazolone)	self-aminoacylation (biotinyl-Phe-oxazolone)	self-aminoacylation (biotinyl-Ile-oxazolone)
CAACUUCAAACAUUCGGUCUG [Fam1A.1 aminoacylation ribozyme variant]	1.57	1.74	1.34	1.5	11.5	1.53
AUUACCCUGGUCAUCGAGUUG [Fam2.1 aminoacylation ribozyme variant]	1.75	1.47	2.14	2.04	3.62	1.27
AUUCACCUAGGUCACGGGGUG [Fam2.2 aminoacylation ribozyme variant]	3.03	4.51	4.08	5.76	22.1	2.98
CUACUUCAAGCAAUCGCUCUG [Fam1A.1 aminoacylation ribozyme variant]	0.943	1.17	1.07	1.28	1.13	0.99
CUACUUCAAACAAUCUUUCUG [Fam1A.1 aminoacylation ribozyme variant]	0.898	2.33	0.771	0.658	5.42	0.747
CCCCACCUCAAGCAAUCGGUC [Fam1B.1 aminoacylation ribozyme variant]	2.2	4.87	1.48	1.48	5.97	1.73
ACACACGUCAAGCAAUCGGUC [Fam1B.1 aminoacylation ribozyme variant]	2.04	2.55	1.96	2.14	3.48	1.88
CCACAUUUCAAGCAAUUGGUC [Fam1B.1 aminoacylation ribozyme variant]	0.994	0.656	1.17	0.857	0.932	1.22
CCUCACUUCAUGCAAUCGGUC [Fam1B.1 aminoacylation ribozyme variant]	0.773	0.804	0.642	0.735	1.17	0.734
CUACUUCAACCAAACGGUCUG [Fam1A.1 aminoacylation ribozyme variant]	0.86	0.55	0.704	0.871	0.71	0.745
AUUACCCUGGUCAUCGAGAGA [Fam2.1 aminoacylation ribozyme variant]	1.36	1.46	1.8	1.72	3.1	1.28
AAGUUUGCUAAUAGCCGUAAG [Fam3.1 aminoacylation ribozyme variant]	1.36	7.16	1.39	0.898	18.2	1.3
AUUACCCCGAUCAUCGAGUGA [Fam2.1 aminoacylation ribozyme variant]	3.77	7.71	7.24	7.03	27.4	3.39
AUUACCCUGGUCAUCGCGUUA [Fam2.1 aminoacylation ribozyme variant]	2.32	4.12	2.71	2.73	12.7	2.27
CCACACUCGAAGCAAUCGGUC [Fam1B.1 aminoacylation ribozyme variant]	1.11	0.864	1.1	0.764	1.07	1.2
AAGAUUGCUAAUAUUCGCAAG [Fam3.1 aminoacylation ribozyme variant]	1.5	2.51	1.42	1.58	1.44	2.02
CUACUUCAGACAAUCGGACUG [Fam1A.1 aminoacylation ribozyme variant]	0.829	0.652	0.586	0.662	0.835	0.864
AUUCCCCUGGCCAUCGAGUGA [Fam2.1 aminoacylation ribozyme variant]	4.87	6.48	6.17	8.45	46.6	3.34
ACUACCCUGGUCAUCGAGUGA [Fam2.1 aminoacylation ribozyme variant]	17.4	45.2	44.3	43.4	266	16.2
AAUCAACUAGGUCAUCGGGUG [Fam2.2 aminoacylation ribozyme variant]	4.4	6.47	5.89	6.32	39.7	4.49
CUACUUCAAACAAUGGGGCUG [Fam1A.1 aminoacylation ribozyme variant]	1.1	0.497	0.841	0.707	0.625	1.12
CUACACUUCAAGCUAUCGGUC [Fam1B.1 aminoacylation ribozyme variant]	0.876	0.608	0.746	0.692	0.833	0.87
AUUACCUUGGUCAUCGUGUGA [Fam2.1 aminoacylation ribozyme variant]	1.57	3.57	2.55	2.71	16.2	1.53
AUUCACCUGGGUCAUCGGGAG [Fam2.2 aminoacylation ribozyme variant]	1.62	2.29	1.86	1.51	7.65	1.65
AGUAACCUAGGUCAUCGGGUG [Fam2.2 aminoacylation ribozyme variant]	3.63	7.15	5.37	6.07	33.3	4.57
CCACACAUCAAGCAAUGGGUC [Fam1B.1 aminoacylation ribozyme variant]	1.08	0.706	0.97	0.806	1.33	1.08
